# Changes are numbered by the printed parent chain.
# T1: human CLL-1 on cells (endogenous on HL-60, EOL-1 and other AML cell lines and CD14+ monocytes); recombinant on … (human, UniProt Q5QGZ9 1-265)
# T1 sequence: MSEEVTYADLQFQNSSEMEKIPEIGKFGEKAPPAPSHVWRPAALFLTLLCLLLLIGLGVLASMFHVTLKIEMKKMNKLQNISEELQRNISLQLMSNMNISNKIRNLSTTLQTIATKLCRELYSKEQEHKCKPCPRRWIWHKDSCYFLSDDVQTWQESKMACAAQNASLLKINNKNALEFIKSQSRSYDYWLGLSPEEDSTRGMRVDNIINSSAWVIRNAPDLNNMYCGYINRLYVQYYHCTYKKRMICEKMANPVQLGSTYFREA
# T2: recombinant human CLL-1 extracellular domain (ECD, amino acids 65-265) fused to an N-terminal Flag (human, UniProt Q5QGZ9 65-265)
# T2 construct: The construct and the K244Q SNP are stated for the immunogen; they are not written as a piece; also called huCLL-1-Flag; huCLL-1
# T2 chain: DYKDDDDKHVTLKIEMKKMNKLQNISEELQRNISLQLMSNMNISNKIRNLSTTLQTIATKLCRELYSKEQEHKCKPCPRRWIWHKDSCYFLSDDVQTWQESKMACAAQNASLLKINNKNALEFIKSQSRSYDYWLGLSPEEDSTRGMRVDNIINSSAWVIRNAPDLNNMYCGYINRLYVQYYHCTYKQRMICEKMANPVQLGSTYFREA
# T3: recombinant cynomolgus CLL-1 extracellular domain (ECD, amino acids 65-265) fused to an N-terminal Flag (cynomolgus monkey)
# T3 construct: Construct stated for the immunogen; also called CynoCLL-1 Flag; cynoCLL-1
# T3 chain: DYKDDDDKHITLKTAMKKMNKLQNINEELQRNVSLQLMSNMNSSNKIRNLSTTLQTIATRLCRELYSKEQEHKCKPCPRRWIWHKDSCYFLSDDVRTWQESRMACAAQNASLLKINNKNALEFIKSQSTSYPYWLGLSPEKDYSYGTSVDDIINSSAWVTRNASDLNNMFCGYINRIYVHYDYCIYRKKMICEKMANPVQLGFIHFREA
# B1: 38E4v1 Fab (Fab, V domains shown)
# VH: EVQLVQSGAEVKKPGASVKVSCKASGFTFTSYYIHWVRQAPGQGLEWIGWIYPENDNTKYNEKFKDRVTITADTSTSTAYLELSSLRSEDTAVYYCARDGYSRYYFDYWGQGTLVTVSS
# VL: DIVMTQSPDSLAVSLGERATINCKSSQSLLNSRTRKNYLAWYQQKPGQSPKLLIYWTSTRKSGVPDRFSGSGSGTDFTLTISSLQAEDVAVYYCKQSFILRTFGQGTKVEIK
# notes: Fab; also called 38E4v1 (Fab Biacore measurements)
# B2: h21C9 (h21C9.L2H3)×38E4v1 TDB (bispecific antibody, V domains shown)
# VH 1: EVQLVQSGAEVKKPGASVKVSCKASGYTFTDYYLDWVRQAPGQGLEWIGRVNPYNGGTIYNQKFKGRVTLTRDTSTSTAYLELSSLRSEDTAVYYCARDHYRYDPLLDYWGQGTLVTVSS
# VL 1: DIQMTQSPSSLSASVGDRVTITCKASQDVSTAVAWFQQKPGKAPKLLIYSPSYRYTGVPSRFSGSGSGTDFTLTISSLQPEDFATYYCQQLYSTPYTFGQGTKVEIK
# VH 2: B1 VH
# VL 2: B1 VL
# B3: 6E7.L4H1eA54×38E4v1 TDB (bispecific antibody, V domains shown)
# VH 1: EVQLVQSGAEVKKPGASVKVSCKASGYSFTDYYMHWVRQAPGQGLEWIGRINPYAGAAFYSQNFKDRVTLTVDTSTSTAYLELSSLRSEDTAVYYCAIERGADLEGYAMDYWGQGTLVTVSS
# VL 1: DIQMTQSPSSLSASVGDRVTITCRASQSVSTSSYNYMHWYQQKPGKPPKLLIKYASNLESGVPSRFSGSGSGTDFTLTISSLQPEDFATYYCQHSWEIPLTFGQGTKVEIK
# VH 2: B1 VH
# VL 2: B1 VL
# B4: 20B1×38E4v1 TDB (bispecific antibody, human IgG1, V domains shown)
# VH 1: EVQLQQSGPELVKPGALVKISCKASGYTFTSYDINWLKQRPGQGLEWIGWIYPGDGTTEYNERFKGKATLTADKSSSTAYLQLSSLTSENSAVYFCARSYDYDYAMDYWGQGTSVTVSS
# VL 1: DIVLTQSPAIMSASPGEKVTMTCSASSSISYMYWYQQKPGTSPKRWIYDTSKLASGVPARFSGSGSGTSYSLTISSMEAEDAATYYCHQRSSWTFGGGTKLEIK
# VH 2: B1 VH
# VL 2: B1 VL
# B5: 28H12×38E4v1 TDB (bispecific antibody, human IgG1, V domains shown)
# VH 1: QVQLQQSGAELVKPGASVKLSCTASGFNIKDTYMHWVKQRPEQGLEWIGRIDPANGDTDYDPKFQGKATVTADTSSNTAYLQLSSLTSEDTAVYYCTISGPPYYVMDYWGQGTSVTVSS
# VL 1: DIQMTQSPASLAVSLGQRATISCRASQSVSSSSYSYMHWYQQKPGQPPKLLIKYASNLESGVPARFSGRGSGTDFTLNIHPVEEEDTATYYCQHSWEIPYTFGGGTRLEIK
# VH 2: B1 VH
# VL 2: B1 VL
# B6: 21C9.L2H3E54 (antibody, V domains shown)
# VH: B2 VH 1 with N55E
# VL: B2 VL 1
# B7: 21C9.L2H3A54 (antibody, V domains shown)
# VH: B2 VH 1 with N55A
# VL: B2 VL 1
# B8: 21C9.L2H3S54 (antibody, V domains shown)
# VH: B2 VH 1 with N55S
# VL: B2 VL 1
# B9: 6E7.L4H1eE54 (antibody, V domains shown)
# VH: B3 VH 1 with A55E
# VL: B3 VL 1
# notes: IgG
# B10: 6E7.L4H1eS54 (antibody, V domains shown)
# VH: B3 VH 1 with A55S
# VL: B3 VL 1
# notes: IgG
# B11: 21C9.L2H3D54 (antibody, V domains shown)
# VH: B2 VH 1 with N55D
# VL: B2 VL 1
# B12: humanized 21C9 variant CDRs graft+(F36 and S43(LC))+L69 (HC) (antibody, V domains shown)
# VH: B2 VH 1
# VL: B2 VL 1 with A43S
# B13: humanized 6E7 variant CDRs graft+K49(LC)+(A67, L69, V71, K73 (HC)) (antibody, V domains shown)
# VH: B3 VH 1 with A55N, V68A, T74K
# VL: B3 VL 1
# Target: T4, hCD3ε (human, UniProt P07766 23-126)
# T4 construct: Also used for the value printed only as 'hCD3 (0.05 nM'); also called human CD3ε polypeptide
# Assay: SPR (Biacore), Fab
# T4 sequence (P07766 23-126): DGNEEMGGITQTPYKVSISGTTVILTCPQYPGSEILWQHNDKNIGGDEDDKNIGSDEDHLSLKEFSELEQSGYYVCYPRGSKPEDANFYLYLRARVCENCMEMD
Kd [nM],koff [s⁻¹],kon [M⁻¹ s⁻¹],Binder
0.389,0.00317,8.15e+06,B1

# Target: T1, human CLL-1 on cells (endogenous on …)
# Assay: cell-based or functional assay
row,Binder,EC50 of killing of EOL-1 (other donors) [µg/mL]
1,B2,0.0163

# Target: T1, human CLL-1 on cells (endogenous on …)
# Assay: cell-based or functional assay
# Remark: another data set of the same source
row,Binder,"Cell killing EC50 (EOL-1 cells, human CD8+ T cells) [µg/mL]"
1,B3,0.034
2,B4,0.531
3,B5,> 1

# Target: T1, human CLL-1 on cells (endogenous on …)
# Assay: cell-based or functional assay
# Remark: another data set of the same source
Binder,"average killing EC50, EOL-1 [µg/mL]","average killing EC50, HL-60 [µg/mL]","average killing EC50, human autologous CD14+ [ng/ml]"
B2,0.0511,1.76,14.8

# Target: T2, recombinant human CLL-1 extracellular …
# Assay: SPR (Biacore T200), IgG captured by anti-human Fc, CLL-1 as analyte
Kd [nM],koff [s⁻¹],kon [M⁻¹ s⁻¹],Binder
862,0.0882,102000,B6
622,0.0692,111000,B7
286,0.0405,142000,B8
5.09,0.00248,488000,B9
14.1,0.0072,510000,B10

# Target: T3, recombinant cynomolgus CLL-1 …
# Assay: as above
Kd [nM],koff [s⁻¹],kon [M⁻¹ s⁻¹],Binder
49600,0.0371,748,B6
217,0.00885,40700,B11
48200,0.0215,445,B7
5670,0.0207,3660,B8
4.26,0.00283,664000,B9
6.37,0.00327,513000,B10

# Target: T2, recombinant human CLL-1 extracellular …
# Assay: SPR (Biacore T200), IgG captured by anti-human Fc, human CLL-1 as analyte
# Description: The binding affinity of the antibodies in this section was determined by BIAcore™ T200 Format. Briefly, BIAcore™ research grade CM5 chips were activated with 1-ethyl-3-(3-dimethylaminopropyl) carbodiimide (EDC) and N-hydroxysuccinimide (NHS) reagents according to the supplier's instructions. Goat anti-human Fc IgGs were coupled to the chips to achieve approximately 10,000 response units (RU) in each flow cell. Unreacted coupling groups were blocked with 1M ethanolamine. For kinetics measurements, antibodies were captured to achieve approximately 300 RU. Three-fold serial dilutions of human CLL-1 was injected in HBS-P buffer (0.01M HEPES pH7.4, 0.15M NaCl, 0.005% surfactant P20) at 25° C. with a flow rate of 30 μl/min. Association rates (kon) and dissociation rates (koff) were calculated using a 1:1 Langmuir binding model (BIAcore™ T200 Evaluation Software version 2.0). The equilibrium dissociation constant (Kd) was calculated as the ratio koff/kon.
row,Kd [nM],Binder
1,10.5,B12
2,1.4,B13

# From patent US20200148774A1 (Genentech, published 2020)
